Results taken from patent US20240239864A1.

Molecular target: HLA-A2 (HLA-A*02:01) on cells (T2 cells; K562A2 cells) (human)
Experiment: T2 peptide-binding assay: T2 cells with peptide at 100 µg/mL overnight, surface HLA-A2 by flow cytometry (T2 only: 3.34E+05)

For “HPV-16 E7 p11-19 peptide (from UniProt P03129 11-19)”, the Mean Fluorescence Intensity (surface HLA-A2) was 492000.
